Measured values as given in the supplement of paper PMC9170038.

System: MS2 coat protein
Assay: apparent KD of MS2 coat protein; designed switch direction (-1 OFF switch, 1 ON switch): 1; higher = weaker reporter binding
Summary of the method: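 Normalised cluster fluorescence was curve-fitted, and each design's median over clusters is its apparent KD. Before this, SNAP-549-labelled MS2 coat protein was titrated from 0.7 or 1.5 nM, doubling to 3 µM, over RNA switches transcribed on Illumina chips by stalled E. coli RNA polymerase. Titrations had no input, 200 uM small-molecule ligand, or an oligonucleotide input, and steps lasted 0.8–1.5 h (lowest) to 10–20 min (highest).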

[1] = input ligand: microRNA oligo, concentration not stated
[2] = Eterna round: R95, input ligand: FMN 200 uM
[3] = Eterna round: R95, input ligand: microRNA oligo, concentration not stated
[4] = Eterna round: R95, input ligand: none

Sequence | apparent KD of MS2 coat protein (input ligand: FMN 200 uM) [nM] | apparent KD of MS2 coat protein [1] [nM] | apparent KD of MS2 coat protein (input ligand: none) [nM] | apparent KD of MS2 coat protein [2] [nM] | apparent KD of MS2 coat protein [3] [nM] | apparent KD of MS2 coat protein [4] [nM]
UUUAGAUUCAGAGGAUAUUGAUGUUGUAAGUAACAAGAAGGCUGAAUGGUUAGAAUUGUUUAUUAACAUGAGGAUCACCCAUGU [JR_SSNG1_Sub009] (Eterna round: R96, puzzle: Same State NG 1) | 17 | 17.1 | 20.8 |  |  | 
UUUAAACAUGAGGAUCACCCAUGUUUUUUUAUGGGAGGAUAUCUAAGUUAAUUAUAUUAAGGAGAAGGCCUAUUUU (Eterna round: R96, puzzle: Same State 1) | 28.1 | 136 | 145 |  |  | 
AGUUGUAAUACAGGAUAUAUAUUAUUUUUAUUUAUAGAAGGGUAAUCACAUGAGGAUCACCCAUGUAUAUACGAGGAAGAAGAG [JMF's solution 2] (Eterna round: R96, puzzle: Same State NG 1) |  | 194 |  |  |  | 
CUGUCUACAGGUGUCUUUGCUCGUUUUAUACAUGAGGAUCACCCAUGUUGUAGCCCGGUGCUUGCGCUGGGCUGGUU [JL ViennaUCT Tearor mod 9] (puzzle: Sensor for hsa-mir-208a) |  |  |  | 66 | 15.6 | 72.7
CAGUGCUGUUGAGAGGAUAUGCGGUGAUGGACAUGAGGAUCACCCAUGUUAGCGACAGCGUUACGGCAGAAGGCUCUACCCACUG [Soteed Omei mod 48] (puzzle: Same State 2) |  |  |  |  | 39.1 | 
UAUGAACAUGAGGAUCACCCAUGUGGUACGAUCACAGGAUAUCACCUCGGACGUGCGAUGUGAGAAGGGUGAUGGU [Same State 1 - Mod of Vinnie Anrelari v.1] (puzzle: Same State 1) |  |  |  |  | 63.1 | 
AACAAUCUAUCUGAGGAUAUCAUGAAAUAAACAUGAGGAUCACCCAUGUGCAGGAUAACUGCAUAUGAGAAGGCAGAUAGAUUGA [salish99_ss2_r3_041] (puzzle: Same State 2) |  |  |  | 57.3 | 661 | 656
UGUUAUUUGACAGGAUAUUGAUUGUAAAGUUUUUACAUGAGGAUCACCCAUGUUGUUCAUUCGAACAAGAAGGGUCAAGUUUUU [JR_SSNG2_Sub019] (Eterna round: R96, puzzle: Same State NG 2) | 1070 | 48.2 | 172 |  |  | 
GCUAGAAUUAAUGCCUACAUGAGGAUCACCCAUGUAUGUAGGCAGGAUAUCGUUUGCUUUGCAAACGAGAAGGGCCUUACUAGC [JL SSNG3 1.10] (Eterna round: R96, puzzle: Same State NG 3) | 18.9 | 50.8 | 77.3 |  |  | 
GUGGUCAGACAUGAGGAUCACCCAUGUGGAAUAAAUAAGGAAAAGGAUAUCUAAUAUAGGAUAUAAGAGAAGGUUUGGUUGGUG (Eterna round: R96, puzzle: Same State NG 3) | 74.1 | 52.1 | 64.7 |  |  | 
GGCAAUAUCACAGGAUAUUGGAAAGGAAGUGUACAAGAAGGGUGAUAGGGCCUCAGCAACAUGAGGAUCACCCAUGUACUGAGC [PowerStrip SSNG 1.10] (Eterna round: R96, puzzle: Same State NG 1) | 62.6 | 13.5 | 40.8 |  |  | 
GAGGGACAGACCAACAUGAGGAUCACCCAUGUCCUCGCAGUUCAGGAUAUCUGGAGGAAGAAGAAAGAGAAGGGAAGGUGAACC [AK SSNG3-V2-35] (Eterna round: R96, puzzle: Same State NG 3) | 312 | 65.3 | 120 |  |  | 
UAAAUAAAGUAAGGAUAUACAUGAGGAUUUCUCGUAGAAGGUACAAGACAUGAGGAUCACCCAUGUAUCGCUCCGUAGAGCGUA [Mat - Same State NG 1 - JL mod - D21] (Eterna round: R96, puzzle: Same State NG 1) |  | 57.7 |  |  |  | 
UCUUGGUUUUUGCUCGUUUUUUGUGUUGAACAUGAGGAUCACCCAUGUAUUGUACGGUCCAAUUUAGUGGUAAUCCG [JMF 66] (puzzle: Sensor for hsa-mir-208a) |  |  |  | 45.1 | 29 | 48.7
UGUAAACAUGAGGAUCACCCAUGUUUUUUCAUGGGAGGAUAUCUGAGUUAAGUAUAUUAAGGAGAAGGCCUUGUGU [× ×•×ª×• ×ž×“×™× ×” × ×—×ª-03] (puzzle: Same State 1) |  |  |  | 90.2 | 18.7 | 24.7
CGCUGCGUUUCAUAGGAUAUGUGGUUUUGAACAUGAGGAUCACCCAUGUAGACGUCAAUGGCUCCACAGAAGGGUGACACUAGUG [Aredis] (puzzle: Same State 2) |  |  |  | 261 | 571 | 908
AAACAUGAGGAUCACCCAUGUCGAUUAAAACCCUAAUCUACUCAGGAUAUCCGAAUGCGCGUUUCGGAGAAGGGAGAAAUGUGA [Isessoreri] (Eterna round: R96, puzzle: Same State NG 3) | 27 | 37.5 | 31.7 |  |  | 

Sequence | apparent KD of MS2 coat protein (input ligand: FMN 200 uM) [nM] | apparent KD of MS2 coat protein [1] [nM] | apparent KD of MS2 coat protein (input ligand: none) [nM] | apparent KD of MS2 coat protein [2] [nM] | apparent KD of MS2 coat protein [3] [nM] | apparent KD of MS2 coat protein [4] [nM]
CACAUGAGGAUCACCCAUGUGAGGCGGCAAUAAAACCGCGCACAGGAUAUAGCGCUAAGAAAGCGCUAGAAGGGUGAUUAGAAC [Gerelabies] (Eterna round: R96, puzzle: Same State NG 3) | 712 | 20.8 | 71.1 |  |  | 
UGGUAACAUGAGGAUCACCCAUGUCAAAUGAAUCGAGGAUAUGGGAAUUAACAACACAAACUAGAAGGCGAAUUUG [Altered State 1-8 - Jieux - Same State 1] (puzzle: Same State 1) |  |  |  | 293 | 488 | 180
GGAGCCGGUACUGAGGAUAUUCAUAUUAAAACAUGAGGAUCACCCAUGUGGGCCAGAAGGCCUUGGGAGAAGGCAGACCAGCUCG [Atgexeedri - 3] (Eterna round: R96, puzzle: Same State 2) | 18.2 | 108 | 156 |  |  | 
GGAGCCGGUACUGAGGAUAUUCAUAUUAAAACAUGAGGAUCACCCAUGUGGGCCAGAAGGCCUUGGGAGAAGGCAGACCAGCUCG [Atgexeedri - 3] (puzzle: Same State 2) |  |  |  | 15.4 | 115 | 177
GCGGAACAUGAGGAUCACCCAUGUAAAGGGUGUAAAGGAUAUUAUUGGGAGAAGGUAGGGUAAGAAGGUUGCUUGG [JR_SS1_Sub088] (Eterna round: R96, puzzle: Same State 1) |  | 432 |  |  |  | 
ACAUGAGGAGCAGGAUAUCGCAUGAGGAUCACCCGAGAAGGGCUCACACAUGAGGAUCACCCAUGUAUCACCCAUGUAUGUUGA [twils 1] (Eterna round: R96, puzzle: Same State NG 1) | 484 | 105 | 498 |  |  | 
UGGAUCUAGGCUUGCCUGGGUCCAUGUUGACAUGAGGAUCACCCAUGUGUAUUCUAUAAGCUUUUUGUUUGUCAACU (puzzle: Sensor for hsa-mir-208a) |  |  |  | 62.5 | 23.3 | 130
AAAAGACAUGAGGAUCACCCAUGUACCAGGUCCACAGGAUAUCAUGCGUGGUUGAAUUCAUGAGAAGGGUGAGACA [Getied] (puzzle: Same State 1) |  |  |  | 48.7 | 188 | 311
AGUCCAGCGAAAGCUGGACAAAAGCAUGUACAUGAGGAUCACCCAUGUUCAUGUACAAGCUUUUUGCUCGUCUUAAA [Zipper 52 - 13] (puzzle: Sensor for hsa-mir-208a) |  |  |  | 486 | 16.2 | 588
GUGGUCAGACAUGAGGAUCACCCAUGUGGAAUAAAUAACGUCAAGGAUAUUCAAUAUAGGAUAUAGAAGAAGGUGAGAUUGGUG (Eterna round: R96, puzzle: Same State NG 3) |  | 142 |  |  |  | 
AUUUUAAAUGCAGGAUAUGAUUAACAUGAGGAUCACCCAUGUGGUGUUGUGAGUAAGGAGAGUGAUCAGAAGGGCAUUUUUUUU [JMF's solution 95] (Eterna round: R96, puzzle: Same State NG 2) | 748 | 546 | 714 |  |  | 
GUGGAGGGUUGAGGAUAUUGAAUACAUAUGUUUAACAUGAGGAUCACCCAUGUGGGUUGCGGUAUCGAGAAGGUAAAUUACUGG [salish99_SSNG2_r04_036] (Eterna round: R96, puzzle: Same State NG 2) | 80.9 | 79 | 86.3 |  |  | 
GUGGUCAGACAUGAGGAUCACCCAUGUGGAAUAAAUAAGGCAUAGGAUAUGAAAUAUAGGAUAUAUCAGAAGGAUGGGUUGGUG (Eterna round: R96, puzzle: Same State NG 3) |  | 131 |  |  |  | 
UUGUUUUGAAAUUUACAUGAGGAUCACCCAUGUCGUGAGACAGAGGAUAUACAGGAAUGUAGGUAGUAGAAGGCUGUUUUGUGU [JR_SSNG3_Sub100] (Eterna round: R96, puzzle: Same State NG 3) | 49.5 | 97.6 | 123 |  |  | 
CUGUAUCACGGAGGAUAUGGGCUGAGACCAGGGCAACCCUGGUCAACAUGAGGAUCACCCAUGUCCCAGAAGGCCGCGAUGCUA [Geisorqu] (Eterna round: R96, puzzle: Same State NG 2) | 23.8 | 82.9 | 137 |  |  | 
AUAAAACAUGAGGAUCACCCAUGUCAACAAAGUCGAGGAUAUGGGCAAAUAUAAUAAGAACCAGAAGGCGAAUAAU [salish99_ss1_r3_023] (puzzle: Same State 1) |  |  |  | 36.1 | 204 | 336
